Assay [1] concerns acute mouse hippocampal slices, CA3-CA1 Schaffer collateral (SC) synapses. The assay is described as follows: Ex vivo fEPSP short-term facilitation in acute hippocampal slices (multi-electrode array). The class given is cell-based. As to the method:
The effect of a selection of GABABR1a-SD1 binders on synaptic transmission was tested in an ex vivo experiment using acute mouse hippocampal slices comprising an intact circuit of CA3-CA1 Schaffer collateral (SC) synapses. In short, a burst of 5 stimuli at 20 Hz was applied to Schaffer collaterals to induce short-term facilitation, which inversely correlates with the probability of neurotransmitter release.
Recordings were done in C57BL/6J mice (2 months old). For tissue preparation, mice were anesthetized with isoflurane and rapidly decapitated to prepare acute 300 μm-thick parasagittal brain slices on a Leica VT1200 vibratome. Slicing was performed in cold sucrose based cutting solution (ACSF) that consisted of (in mM): 87 NaCl, 2.5 KCl, 1.25 NaH2PO4, 10 glucose, 25 NaHCO3, 0.5 CaCl2, 7 MgCl2, 75 sucrose, 1 kynurenic acid, 5 ascorbic acid, 3 pyruvic acid (pH 7.4 with 5% CO2/95% O2). Slices were allowed to recover at 34° C. for 35 min, and subsequently maintained at room temperature for at least 30 min before use. Before recordings, slices were preincubated in artificial cerebrospinal fluid (ACSF, 119 mM NaCl, 2.5 mM KCl, 1 mM NaH2PO4, 11 mM glucose, 26 mM NaHCO3, 4 mM MgCl2 and 4 mM CaCl2, pH 7.4) containing peptide of interest or scrambled/control peptide (1 or 10 uM). Preincubation was performed in the multielectrode array recording chamber (60MEA200/30iR-Ti-gr, Multichannel Systems) for 60 min at 32° C., using custom-made local carbogenation rings (5% CO2/95% 02). Field excitatory post-synaptic potentials (fEPSPs) were recorded from Schaffer collateral-CA1 synapses by stimulating and recording from the appropriate (visually identified) electrodes (MEA-2100, Multichannel Systems). Input-output curves were recorded for each slice by applying single-stimuli ranging from 500 to 2750 mV with 250 mV increments. […] Train stimulations of 10, 20 and 50 Hz (5 stimuli per train) were recorded with 10 minutes intervals. Recordings were processed and analysed using Multi Channel Experimenter software (Multi Channel Systems).

In assay [2] the target is T1, Sushi domain 1 of the human GABA B1a receptor (human, UniProt Q9UBS5 26-96).
T1 construct: Purified recombinant protein from E. coli; also called SD1; GABABR1a-SD1
T1 sequence (Q9UBS5 26-96 limits assumed): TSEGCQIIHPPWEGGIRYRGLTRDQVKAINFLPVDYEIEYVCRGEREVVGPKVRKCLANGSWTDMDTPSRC
In words: FP competition vs FITC-9mer on purified SD1; 17-mer. Here is the method: Intrigued by the surprising results of the 5-mer, it was decided to set up a medium- to high-throughput screen to optimize the 5-mer sequence. Several assays were tested to find a reproducible, robust and cost-effective assay that is also suitable for high-throughput screening. A fluorescence polarization (FP) assay was selected. FP measurements are well-known for receptor binding assays. The assay is based on the rotational movement of fluorescently labelled molecules in solution. […] The FP assay was optimized using the FITC labelled sAPP 9-mer (FIG. 1).
(§1) To screen for GABABR1a binders using unlabelled test compounds, the assay was turned into a competition assay using FITC-9mer. […] To validate this inhibitor assay, the IC50 values were determined of the 17-mer, 9-mer, 5-mer as well as those from 3 negative controls: 10-mer, scrambled 17-mer and a scrambled 9-mer (FIG. 2).

Assay [3] addresses GABABR1b expressed on cells (UniProt Q9UBS5-2 30-474, limits assumed). The assay is described as follows: cell-based binding assay, flow cytometry. On the technique in general: In flow cytometry, cells or beads pass a laser one at a time.
The target of assay [4] is T1, Sushi domain 1 of the human GABA B1a …. In words: fluorescence polarization, SD1 titrated against 11.11 µM FITC-9mer; concentration is that of SD1.
Assay [5] shares this target. In words: fluorescence polarization, SD1 titrated against 1.2 µM FITC-9mer; concentration is that of SD1. A general note: In fluorescence polarisation assays a small probe gives low polarisation when free and higher when bound to something large.
For assay [6] the target is unchanged. The assay is described as follows: fluorescence polarization, SD1 titrated against 0.41 µM FITC-9mer; concentration is that of SD1.
The target is the same in assay [7]. In words: fluorescence polarization, SD1 titrated against 0.05 µM FITC-9mer; concentration is that of SD1.
Assay [8] shares this target. In words: fluorescence polarization, SD1 titrated against 3.7 µM FITC-9mer; concentration is that of SD1.
Assay [9] shares this target. The assay is described as follows: fluorescence polarization, SD1 titrated against 0.14 µM FITC-9mer; concentration is that of SD1.
For assay [10] the target is unchanged. The assay is described as follows: ITC, peptide titrated into purified SD1. Here is the method:
First, we wondered whether the wild-type sAPP 9-mer peptide would be the optimal sequence in terms of SD1 binding or whether sequence variants of the sAPP 9-mer would have improved binding to the GABABR1a-SD1. Therefore a panel of single and double sAPP 9-mer mutants was generated. An alanine scan was performed for the residues on position 1 to position 7. Based on an ITC assay, these single mutant peptides bound the SD1 with the same or slightly higher Kd (Table 1). Also the double mutants VIB_P04, VIB_P05 and VIB_P19 bound with a similar Kd to SD1 compared to the wild-type 9-mer. We have also tested the effect of the D-isomer of the amino residues on position 1 to 4, in single or multiple combinations. None of the mutations had strong effects on the measured Kd (Table 1). We therefore conclude that the wild-type sAPP 9-mer is already optimized but that many variants bind as good to SD1 and thus will modulate GABABR1a in a similar manner.
The Sushi-1 protein was dialysed overnight to PBS buffer and diluted to 30 μM in the same buffer. The peptides were resuspended in PBS at a stock concentration of 3 mM and diluted further in the same buffer to 300 μM. ITC experiments were performed on a Microcal ITC200 device. Titrations comprised 26×1.5 μL injections of peptide into protein, with 90 s intervals. An initial injection of ligand (0.5 μL) was made and discarded during data analysis. The data were fitted to a single binding site model using the Microcal LLC ITC₂₀₀. Original software provided by the manufacturer.
For orientation: Isothermal titration calorimetry measures the heat released or taken up as one component is titrated into another.

The target is the same in assay [11]. The assay is described as follows: FP competition vs FITC-9mer on purified SD1; 9-mer. As to the method: as §1
To determine if the peptides of this application were able to disrupt the SD1-9-mer complex, each peptide (in single point or dose-response curve) tested was incubate with SD1 protein for 1 h at RT. After this initially incubation, FITC-9mer was added to the previous mix and incubated during 2 h at RT. The signal intensity was measure in an appropriate plate reader using the following settings: Number of flashes per well: 200; Excitation: F482-16; Dichroic filter: FLP 504; Emission A F530-40; Gain A: 738, Gain B: 736. The assay was conducted in a 384-well plate.

Where no end group is shown, it is not given here.

Sequence of GABABR1b expressed on cells (Q9UBS5 other isoform, or with tags, fused parts or gaps limits assumed): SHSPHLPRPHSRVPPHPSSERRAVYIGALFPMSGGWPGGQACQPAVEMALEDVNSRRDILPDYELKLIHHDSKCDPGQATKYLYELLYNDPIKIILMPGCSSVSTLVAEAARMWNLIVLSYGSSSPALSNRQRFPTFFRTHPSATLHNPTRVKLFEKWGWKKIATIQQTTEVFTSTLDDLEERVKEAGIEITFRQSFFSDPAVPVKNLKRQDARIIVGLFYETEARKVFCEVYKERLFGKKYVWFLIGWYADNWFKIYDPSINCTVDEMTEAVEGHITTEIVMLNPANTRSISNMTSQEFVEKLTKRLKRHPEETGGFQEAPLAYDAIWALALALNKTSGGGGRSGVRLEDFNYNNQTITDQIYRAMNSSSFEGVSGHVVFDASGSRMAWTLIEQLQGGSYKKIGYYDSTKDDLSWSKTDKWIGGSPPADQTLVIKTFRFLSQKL

Consider “DDSDVWWGGADTDYADG [Peptide 17-mer, DDSDVWWGGADTDYADG]”, for which, in [1] (peptide 1 μM, vs scrambled control peptide, burst of 5 stimuli at 20 Hz, listed as sAPP 17-mer), the “Ex vivo assay 1 μM (short-term facilitation)” value is listed as “increased the facilitation”. Moreover, in assay [1] (peptide 1 μM, CGP-54626 10 μM preincubation), the “Increase in facilitation after preincubation with GABABR antagonist CGP-54626” value is on record as “blocked”. Moreover, the “Ex vivo assay 10 μM (short-term facilitation)” value in assay [1] (peptide 10 μM, vs scrambled negative control at 10 μM) was “statistically significant increase in short-term facilitation”.
Broadly, the IC50 is the point on the concentration scale where inhibition reaches its midpoint. A low value points to greater potency in that assay. As for DDSDVWWGGADTDYADG [wild-type sAPP 17-mer], in [2], the IC50 is 1700 nM.
Consider DDSDVWWGG (also: biotin tag, site not given here, also called biotin-9mer; biotion-9mer) [9-mer tagged with Biotin], for which, in [3], the binding result was “no binding”.
Broadly, the EC50 (read off the curve) is the midpoint of the concentration-response curve. A high value points to a need for much substance. Regarding DDSDVWWGG (also: FITC label, site not given here, also called FITC-9mer) [FITC labelled sAPP 9-mer], the “EC50 (read off the curve)” value was about 8000 nM in assay [4]; about 2000 nM in assay [5]; about 1000 nM in assay [6]; about 800 nM in [7]; about 4000 nM in assay [8]; about 1000 nM in assay [9].
One may read the Kd as the concentration at which binding is half-saturated. For DDSDVWWGG (Unlabelled) [wild-type sAPP 9-mer], the Kd in assay [10] turned out to be 3000 nM. Also, the IC50 in [11] came out at 11000 nM.

The values are drawn from patent US20240376149A1, “Novel Modulators of GABABR1a” (VIB VZW, priority 2021, published 2024).
